Read-outs that look alike come from different tables or passages of the source.
Key:
[1] = Stability analysis in plasma, liver and kidney of mice, ex vivo TLC; parameters: species or system mouse; conditions: γ-counter, mean ± SD, n = 3 mice; for Fraction ratio of intact radiotracer, Plasma (%): B16-F1-bearing C57BL6 mice; for Fraction ratio of intact radiotracer, Plasma (%) / Fraction ratio of intact radiotracer, Liver (%): reverse-phase TLC; for Fraction ratio of intact radiotracer, Liver (%): liver homogenate
Method: All animal studies were conducted following approval by the Animal Care Committee of Kanazawa University (AP-122339). Fasted B16-F1-bearing C57BL6 male mice (5 weeks old) were administered ^111In-labeled 3-arm or 4-arm DOTA-α-MSH (3.7 MBq/mouse) via the tail vein. At 10, 30, 60, 120, and 180 min after injection, mice (n = 3 per time point) were euthanized with isoflurane, and blood and liver were collected and analyzed with thin layer chromatography (TLC). Briefly, 300 uL blood in a heparinized tube was centrifuged at 18,000 ×g at 4°C for 5 min. A total of 30 uL perchloric acid was added to the supernatant, which was centrifuged again, after which the final supernatant was spotted onto the TLC plate as plasma. Krebs-Ringer phosphate buffer (pH 7.4) was added to the liver samples, followed by homogenization with an ultrasonic homogenizer (SONIFIER250, Branson, MO, USA). Then, ethanol was added to the homogenate to remove proteins, and the sample was centrifuged at 18,000 ×g at 4°C for 5 min. The final supernatant was spotted onto the reverse-phase TLC plate, and the TLC spots were developed using 50 mM EDTA (pH 4–5) solvents. After development and complete drying, the TLC plates were cut into 21 fractions, and the radioactivity associated with each fraction was quantified using a γ-ray counter. The fraction ratios of ^111In^3+, ^111In-labeled 3-arm or 4-arm DOTA-α-MSH, and all metabolites were calculated by dividing the radioactive counts for each fraction by the total radioactivity counts.

[2] = Biological distribution in B16-F1 melanoma-bearing mice; assay type: in vivo, mouse; conditions: male, C57BL6, mouse, in vivo, iv, 37 kBq/mouse, total radioactivity, mean, n = 3 mice; for tissue uptake at 10 min / tissue uptake dose at 10 min: 10 min after i.v. 37 kBq/mouse; for tissue uptake at 0.5 h / tissue uptake dose at 0.5 h: 30 min after i.v. 37 kBq/mouse; for tissue uptake at 1 h / tissue uptake dose at 1 h: 60 min after i.v. 37 kBq/mouse; for tissue uptake at 2 h / tissue uptake dose at 2 h: 120 min after i.v. 37 kBq/mouse; for tissue uptake at 3 h / tissue uptake dose at 3 h: 180 min after i.v. 37 kBq/mouse
Method: (§1) C57BL6 male mice (5 weeks old) were transplanted with B16-F1 cells (5 × 10^5 cells/100 μL) into the thigh of the mice. […] The mice were housed and continuously monitored each day for 2 weeks in a 12-hour light/12-hour dark cycle with free access to food and water. The tumor size reached 8.7 ± 2.8 mm at 2 weeks after transplant of cells. Two mice with tumor sizes of 13 and 15 mm were excluded from our experiments. Mice with a tumor size <10 mm were fasted with no food overnight with water supplied ad libitum before experiments.
(§2) For biological distribution studies, B16-F1-bearing mice were administered ^111In-labeled 3-arm or 4-arm DOTA-α-MSH via the tail vein (37 kBq/mouse). At 10, 30, 60, 120, and 180 min after injection, the mice were euthanized under isoflurane (n = 3 per time point), and the following tissues were collected: brain, lung, heart, stomach, liver, small intestine, large intestine, kidney, blood, muscle, and B16-F1 melanoma. Tissues were weighed, and radioactivity was quantified using an automated γ-ray counter to calculate the percent injected dose (%ID) or percent injected dose per gram of tissue (%ID/g).
(§3) For SPECT imaging, ^111In-labeled 3-arm or 4-arm DOTA-α-MSH was injected into the tail vein of four B16-F1-bearing mice in total (37 MBq/mouse). For SPECT imaging, acquisition was started at 10 min after injection and continued every 10 min for 180 min. The data were reconstructed using the ordered subset expectation maximization method with 16 subsets and six iterations including no scatter and attenuation correction. The voxel size was set to 0.8×0.8×0.8 mm. Post-reconstruction smoothing filtering was applied using a 1.0-mm Gaussian filter. […] In these images, three to five regions of interest were placed over the kidney, muscle, and B16-F1 melanoma in which accumulation could be seen, and the time activity curve of each was obtained as the %ID/g.

[3] = test system: B16-F1 melanoma-bearing mice; test: as above; assay type: in vivo, mouse; conditions: for Melanoma-to-blood ratio / Melanoma-to-kidney ratio / Melanoma-to-muscle ratio: mean ± SD, four mice
Method: as §1, §2, §3

[4] = 10 min after i.v. injection 3.7 MBq/mouse
[5] = 30 min after i.v. injection 3.7 MBq/mouse
[6] = 60 min after i.v. injection 3.7 MBq/mouse
[7] = 120 min after i.v. injection 3.7 MBq/mouse
[8] = 180 min after i.v. injection 3.7 MBq/mouse
[9] = read-out: Biological distribution, Blood
[10] = read-out: Biological distribution, Brain
[11] = read-out: Biological distribution, Heart
[12] = read-out: Biological distribution, Kidney
[13] = read-out: Biological distribution, Large intestine
[14] = read-out: Biological distribution, Liver
[15] = read-out: Biological distribution, Lung
[16] = read-out: Biological distribution, Muscle
[17] = read-out: Biological distribution, Small intestine
[18] = read-out: Biological distribution, Stomach
[19] = B16-F1 melanoma, read-out: Biological distribution, Melanoma
[20] = average over all acquisition time points

CSCC[C@H](NC(=O)[C@H](CO)NC(=O)[C@H](Cc1ccc(O)cc1)NC(=O)[C@H](CO)NC(C)=O)C(=O)N[C@@H](CCC(=O)O)C(=O)N[C@@H](Cc1c[nH]cn1)C(=O)N[C@@H](Cc1ccccc1)C(=O)N[C@@H](CCCNC(=N)N)C(=O)N[C@@H](Cc1c[nH]c2ccccc12)C(=O)NCC(=O)N[C@@H](CCCCNC(=S)Nc1ccc(C[C@H]2CN(CC(=O)O)CCN(CC(=O)O)CCN(CC(=O)O)CCN2CC(=O)O)cc1)C(=O)N1CCC[C@H]1C(=O)N[C@H](C(=O)O)C(C)C [^111In-labeled 4-arm DOTA-α-MSH, metal not drawn]
Fraction ratio of intact radiotracer, Plasma (%) [1, 4]: 96.0 ± 2.5% | Fraction ratio of intact radiotracer, Liver (%) [1, 4]: 95.1 ± 2.9% | Fraction ratio of intact radiotracer, Plasma (%) [1, 5]: 95.8 ± 2.6% | Fraction ratio of intact radiotracer, Kidney (%) ([1]; 30 min after i.v. injection 3.7 MBq/mouse, kidney, TLC): 95.8 ± 1.9% | Fraction ratio of intact radiotracer, Liver (%) [1, 5]: 94.9 ± 2.1% | Fraction ratio of intact radiotracer, Plasma (%) [1, 6]: 92.1 ± 2.1% | Fraction ratio of intact radiotracer, Liver (%) [1, 6]: 91.3 ± 3.2% | Fraction ratio of intact radiotracer, Plasma (%) [1, 7]: 84.2 ± 2.2% | Fraction ratio of intact radiotracer, Liver (%) [1, 7]: 78.6 ± 4.9% | Fraction ratio of intact radiotracer, Plasma (%) [1, 8]: 80.8 ± 2.3% | Fraction ratio of intact radiotracer, Liver (%) [1, 8]: 76.2 ± 4.1% | tissue uptake at 10 min [2, 9]: 4.03 %ID/g | tissue uptake at 10 min [2, 10]: 0.04 %ID/g | tissue uptake at 10 min [2, 11]: 0.55 %ID/g | tissue uptake at 10 min [2, 12]: 17.1 %ID/g | tissue uptake dose at 10 min [2, 13]: 0.03 %ID | tissue uptake at 10 min [2, 14]: 2.52 %ID/g | tissue uptake at 10 min [2, 15]: 0.42 %ID/g | tissue uptake at 10 min [2, 16]: 0.1 %ID/g | tissue uptake dose at 10 min [2, 17]: 0.05 %ID | tissue uptake dose at 10 min [2, 18]: 0.09 %ID | tissue uptake at 0.5 h [2, 9]: 2.02 %ID/g | tissue uptake at 0.5 h [2, 10]: 0.03 %ID/g | tissue uptake at 0.5 h [2, 11]: 0.46 %ID/g | tissue uptake at 0.5 h [2, 12]: 13.3 %ID/g | tissue uptake dose at 0.5 h [2, 13]: 0.03 %ID | tissue uptake at 0.5 h [2, 14]: 1.45 %ID/g | tissue uptake at 0.5 h [2, 15]: 0.52 %ID/g | tissue uptake at 0.5 h [2, 16]: 0.12 %ID/g | tissue uptake dose at 0.5 h [2, 17]: 0.04 %ID | tissue uptake dose at 0.5 h [2, 18]: 0.09 %ID | tissue uptake at 1 h [2, 9]: 1.01 %ID/g | tissue uptake at 1 h [2, 10]: 0.03 %ID/g | tissue uptake at 1 h [2, 11]: 0.38 %ID/g | tissue uptake at 1 h [2, 12]: 8.12 %ID/g | tissue uptake dose at 1 h [2, 13]: 0.04 %ID | tissue uptake at 1 h [2, 14]: 1.18 %ID/g | tissue uptake at 1 h [2, 15]: 0.22 %ID/g | tissue uptake at 1 h [2, 16]: 0.08 %ID/g | tissue uptake dose at 1 h [2, 17]: 0.03 %ID | tissue uptake dose at 1 h [2, 18]: 0.08 %ID | tissue uptake at 2 h [2, 9]: 0.11 %ID/g | tissue uptake at 2 h [2, 10]: 0.02 %ID/g | tissue uptake at 2 h [2, 11]: 0.14 %ID/g | tissue uptake at 2 h [2, 12]: 6.31 %ID/g | tissue uptake dose at 2 h [2, 13]: 0.03 %ID | tissue uptake at 2 h [2, 14]: 0.9 %ID/g | tissue uptake at 2 h [2, 15]: 0.13 %ID/g | tissue uptake at 2 h [2, 16]: 0.04 %ID/g | tissue uptake dose at 2 h [2, 17]: 0.02 %ID | tissue uptake dose at 2 h [2, 18]: 0.05 %ID | tissue uptake at 3 h [2, 9]: 0.03 %ID/g | tissue uptake at 3 h [2, 10]: 0.01 %ID/g | tissue uptake at 3 h [2, 11]: 0.05 %ID/g | tissue uptake at 3 h [2, 12]: 5.19 %ID/g | tissue uptake dose at 3 h [2, 13]: 0.03 %ID | tissue uptake at 3 h [2, 14]: 0.61 %ID/g | tissue uptake at 3 h [2, 15]: 0.06 %ID/g | tissue uptake at 3 h [2, 16]: 0.03 %ID/g | tissue uptake dose at 3 h [2, 17]: 0.02 %ID | tissue uptake dose at 3 h [2, 18]: 0.05 %ID | tissue uptake at 10 min [2, 19]: 2.22 %ID/g | tissue uptake at 0.5 h [2, 19]: 2.25 %ID/g | tissue uptake at 1 h [2, 19]: 3.34 %ID/g | tissue uptake at 2 h [2, 19]: 4.52 %ID/g | tissue uptake at 3 h [2, 19]: 4.83 %ID/g | Melanoma-to-blood ratio ([3]; 10 min after injection): 0.55 ± 0.14 | Melanoma-to-kidney ratio ([3]; 10 min after injection): 0.13 ± 0.07 | Melanoma-to-muscle ratio ([3]; 10 min after injection): 22.20 ± 3.35 | Melanoma-to-blood ratio ([3]; 30 min after injection): 1.11 ± 0.28 | Melanoma-to-kidney ratio ([3]; 30 min after injection): 0.17 ± 0.11 | Melanoma-to-muscle ratio ([3]; 30 min after injection): 18.75 ± 4.45 | Melanoma-to-blood ratio ([3]; 60 min after injection): 3.31 ± 0.35 | Melanoma-to-kidney ratio ([3]; 60 min after injection): 0.41 ± 0.15 | Melanoma-to-muscle ratio ([3]; 60 min after injection): 41.75 ± 6.38 | Melanoma-to-blood ratio ([3]; 120 min after injection): 41.09 ± 4.78 | Melanoma-to-kidney ratio ([3]; 120 min after injection): 0.72 ± 0.18 | Melanoma-to-muscle ratio ([3]; 120 min after injection): 113.00 ± 7.33 | Melanoma-to-blood ratio ([3]; 180 min after injection): 155.81 ± 12.93 | Melanoma-to-kidney ratio ([3]; 180 min after injection): 0.93 ± 0.15 | Melanoma-to-muscle ratio ([3]; 180 min after injection): 155.81 | Melanoma-to-muscle ratio ([3]; 180 min after injection, listed as 4-arm DOTA-α-MSH): 155.81 ± 8.63 | Higher average accumulation in B16-F1 melanoma than 111In-labeled 3-arm DOTA-α-MSH [3, 20]: 1.32 fold | Lower average accumulation in kidney than 111In-labeled 3-arm DOTA-α-MSH [3, 20]: 1.38 fold

— PMC6430397, “The pharmacological properties of 3-arm or 4-arm DOTA constructs for conjugation to α-melanocyte-stimulating hormone analogues for melanoma imaging” (PLoS ONE, 2019)
